± gives the standard deviation.
Experiment: collision cross section of unmodified peptide (TIMS, N2, iRT-aligned); higher = larger / more extended gas-phase ion
In short: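 Collision cross section values rest on the Mason-Schamp equation applied to calibrated, run-aligned mobility data from synthetic peptides. Mobility (1/K0) was calibrated with three reference ions and aligned per run to the median iRT peptide deviation, and 1–3 technical replicates of the most abundant feature per charge state were averaged. Data came from a timsTOF Pro/HT in dda-PASEF mode (nitrogen, ~2.4 mbar) after a 120-min nanoflow C18 gradient at 60 °C.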

Sequence | collision cross section (charge state: 2) [Å²] | collision cross section (charge state: 3) [Å²]
SGGYGGSRDYYSSR | 399.15 ± 1.2 | 474.66 ± 1.4
SGKFTQQDIDEAK | 412.77 ± 2.3 | 486.03 ± 4.9
SGNLTEDDKHNNAK | 412.58 ± 1.5 | 490.18 ± 3.5
SGRGGNFGFGDSR | 375.82 ± 0.59 | 452.15 ± 2.9
SGYSSPGSPGTPGSR | 379.95 ± 0.14 | –
SHLRHAIPSAER | 388.74 ± 0.39 | 458.41 ± 2.7
SISQSISGQK | 337.94 ± 0.14 | –
SITHSTVGSKGEK | 404.31 ± 1.8 | 464.75 ± 3.9
SKHLQEQLNELK | 411.35 ± 1.6 | 481.15 ± 4.4
SKLLFSNTAAQK | 393.75 ± 6 | 444.64 ± 5
SLEEEGAAHSGKR | 399.57 ± 1.8 | 472.78 ± 3.7
SLFFGGKGAPLQR | 408.73 ± 1.1 | 446.07 ± 3.4
SLGEPAAGEGSAKR | 397.19 ± 1.1 | 478.87 ± 5.9
SLIGKVDGTSHVTGK | 430.43 ± 0.65 | 491.82 ± 0.22
SLKLNTAEDAK | 372.65 ± 1.5 | 469.12 ± 5.3
SLYASSPGGVYATR | 405.12 ± 0.66 | 482.72 ± 0.22
SNEEGSEEKGPEVR | 397.33 ± 0.57 | 477.66 ± 4.4
SPASDTYIVFGEAK | 403.4 ± 0.16 | 478.14 ± 0.9
SPDEAYAIAKK | 371.22 ± 1.1 | 435.25 ± 4.4
SPPLPEHQKIPCNSAEPK | – | 527.39 ± 1.3
SPSDSGYSYETIGKTTK | 441.25 ± 2.3 | 517.54 ± 3.3
SQAGASELGPFSDPR | 396.36 ± 0.66 | –
SQLANTEPTK | 350.96 ± 0.68 | –
SRFYSGFNSR | 370.83 ± 0.54 | 436.82 ± 3.8
SRGAIISQYYNR | 400.77 ± 1.6 | 465.8 ± 0.66
SRGGGGNFGPGPGSNFR | – | 460.96 ± 1.4
SSDLTDRVK | 344.22 ± 0.14 | 424.95 ± 0.87

Sequence | collision cross section (charge state: 2) [Å²] | collision cross section (charge state: 3) [Å²]
SSFAYKDQNENR | 418.44 ± 1.2 | 454.53 ± 4.1
SSGPGGQNVNKVNSK | 401.42 ± 1.8 | 447.95 ± 4.2
SSSAGGQGSYVPLLR | 402.55 ± 0.66 | –
STCTYVGAAK | 334.15 ± 0.48 | –
STGLELETPSLVPVKK | 457.57 ± 5.2 | 520.54 ± 2.5
STLEEPNLQPLQR | 408.53 ± 0.66 | –
STNVTVAAARGIK | 399.07 ± 1.1 | 480.75 ± 3.1
SVGGSGGGSFGDNLVTR | 413.69 ± 1.1 | –
SVSSSSYR | 308.48 ± 0.73 | –
SYGIPYIETSAK | 384.66 ± 0.47 | –
SYHLQIVTK | 344.3 ± 0.59 | 447.43 ± 1.7
SYISSQTNDTHK | 399.56 ± 0.14 | 459.19 ± 1.2
SYSVGASGSSSR | 351.41 ± 0.48 | –
SYVDTGGVSR | 337.16 ± 0.15 | –
TAGSSGVTAGRPRPTAR | – | 538.39 ± 0.86
TAIQAAGYPDK | 362.76 ± 1.1 | –
TATLATLATR | 333.86 ± 0.69 | –
TELLPGDRDNLAIQTR | – | 506.52 ± 0.86
TEVLSPNSKVESK | 418.58 ± 2.2 | 483.46 ± 5.8
TEVNSGFFYK | 366.57 ± 0.48 | –
TFGKAAGPSLSHTSGGTQSK | 462.76 ± 2.3 | 520.05 ± 2.3
TGGTQTDLFTCGKCK | 431.32 ± 1.2 | 479.49 ± 5.3
TGPPGSTGSR | 307.73 ± 0.78 | –
TGPPGSTGSRGPPGPPGR | – | 459.15 ± 0.33
THLAPYSDELR | 381.48 ± 0.47 | 446.52 ± 1.7
THLGEALAPLSK | 380.02 ± 0.67 | 462.22 ± 1
TLDEILQEKK | 375.43 ± 1 | 432.42 ± 3.6

Sequence | collision cross section (charge state: 2) [Å²] | collision cross section (charge state: 3) [Å²]
TLHLSHLNRFPAR | – | 511.92 ± 1.2
TLQKQSVVYGGK | 390.15 ± 1.7 | 444.64 ± 5
TLTPASSPVSSPSK | 389.93 ± 0.025 | –
TLTPASSPVSSPSKHGDR | – | 512.67 ± 1
TPLTHALPGLSEQEGQK | – | 495.4 ± 0.86
TPNLYIYSKK | 381.12 ± 1.4 | 430.18 ± 4.5
TPSSFRQPFTPTSR | – | 486.75 ± 0.79
TQAEGQGQGRGLGLVSAVR | – | 513.29 ± 0.77
TQAYQDQKPGTSGLR | 425.76 ± 1.4 | 489.83 ± 5.9
TQDQISNIKYHEEFEK | 459.39 | 550.5 ± 0.31
TQSFSLQER | 347.63 ± 0.14 | –
TSAVSSQANSQPPVQVSVK | 457.25 ± 1.5 | 542.62 ± 0.28
TSAYGPPTR | 322.86 ± 1.6 | –
TSSEASVSSSVAK | 370.17 ± 0.67 | –
TSYAQHQQVR | 367.57 ± 0.48 | 444.63 ± 0.86
TTEETSKPK | 341.31 ± 0.82 | 430.05 ± 3.7
TTGFYSGFSEVAEKR | 454.17 ± 3.2 | 530.82 ± 1.6
TTLTSDESVKDHTTAGR | – | 528.1 ± 0.21
TTSYPTPRPYPKPAPSSGK | – | 522.76 ± 0.86
TVQGPPGEPGR | 344.87 ± 3.1 | –
TVSKVDDFLANEAK | 420.02 ± 1.7 | 500.46 ± 2.4
TVTNAVVTVPAYFNDSQR | 471.11 ± 0.99 | 576.65 ± 1.1
TYVQDILR | 349.04 ± 0.59 | –
VDATADYICK | 353.92 ± 0.79 | –
VDGDTQTTVEK | 367.05 ± 2.3 | –
VDIDAPDVSIEGPDAKLK | 460.39 ± 2.9 | 544.84 ± 1.8
VDIDVPDVNIEGPDAKLK | 470.4 ± 2.9 | 542.58 ± 2

Sequence | collision cross section (charge state: 2) [Å²] | collision cross section (charge state: 3) [Å²]
VDVEVPDVSLEGPEGKLK | 461.73 ± 2.9 | 514.03 ± 36
VEELEGEITTLNHK | 424.1 ± 0.66 | 513.8 ± 3.5
VELCSFSGYK | 358.19 ± 0.59 | –
VEPGSLESSPGLGRGR | 425.39 ± 1.8 | 497.45 ± 0.11
VEPIHAVVLPRGK | 414.74 ± 1.1 | 483.53 ± 1.8
VETFSGVYK | 332.43 ± 0.59 | –
VETTVTSLKTK | 379.41 ± 0.92 | 459.8 ± 3.1
VFIGNLNTLVVKK | 421.66 ± 1.2 | 475.82 ± 2
VFIGNLNTLVVKKK | – | 483.04 ± 2.6
VFLDCCNYITELR | 421.63 ± 0.67 | –
VFSIISSEKELK | 413.02 ± 1.5 | 485.92 ± 5.3
VGADGTVFATR | 348.87 ± 0.14 | –
VGEFSGANKEK | 374.9 ± 0.4 | 443.03 ± 4.2
VGIDTPDIDIHGPEGKLK | 461.05 ± 2.5 | 538.36 ± 1.9
VGLQVVAVKAPGFGDNR | 462.44 ± 2.5 | 487.54 ± 2.5
VGTASVLQPVKK | 400.02 ± 0.9 | 461.91 ± 3
VGVEAKQPNSAIR | 404.68 ± 1.4 | 493.5 ± 7.8
VGVEVPDVNIEGPEGKLK | 456.21 ± 2.8 | 537.32 ± 2.3
VGYPGPSGPLGAR | 357.93 ± 0.58 | 439.38 ± 0.85
VGYPGPSGPLGARGIPGIK | 447.51 ± 0.68 | 562.22 ± 0.35
VHATSTYR | 325.88 ± 0.49 | 398.18 ± 1.6
VILENIASHEPR | 417.03 ± 1.4 | 473.55 ± 0.22
VIVGGSSEYK | 346.7 ± 0.59 | –
VLATQPGPGRGR | 368.04 ± 0.27 | 447.7 ± 3

— the supplement of paper PMC10598134
